Measured values taken from US7005505 (Genentech, dated 2006).
Changes are numbered by the printed parent chain. Numbers in names are those of the source.

B1: wildtype VEGF165 expressed in 293 cells (ligand)
chain: APMAEGGGQNHHEVVKFMDVYQRSYCHPIETLVDIFQEYPDEIEYIFKPSCVPLMRCGGCCNDEGLECVPTEESNITMQIMRIKPHQGQHIGEMSFLQHNKCECRPKKDRARQENPCGPCSERRKHLFVQDPQTCKCSCKNTDSRCKARQLELNERTCRCDKPRR
modifications: N-linked carbohydrate at Asn75
notes: Transiently expressed in 293 cells; tested as conditioned medium
B2: E64N, L66S VEGF (ligand)
chain: B1 chain with E64N, L66S
modifications: putative extra N-linked glycosylation at position 64
notes: Neo-glycosylation mutant from 293 cells, conditioned medium
B3: E64A VEGF (ligand)
chain: B1 chain with E64A
notes: VEGF165 mutant from 293 cells, conditioned medium
B4: H86A VEGF (ligand)
chain: B1 chain with H86A
notes: as for B3
B5: R23A VEGF (ligand)
chain: B1 chain with R23A
notes: as for B3
B6: RIK(82-84)NLS VEGF (ligand)
chain: B1 chain with R82N, I83L, K84S
modifications: potential N-linked glycosylation site at position 82 (extent of glycosylation not apparent)
notes: Neo-glycosylation mutant from 293 cells, conditioned medium; also called R82N, I83L, K84S
B7: D63A VEGF (ligand)
chain: B1 chain with D63A
notes: as for B3
B8: E42A VEGF (ligand)
chain: B1 chain with E42A
notes: as for B3
B9: R112A, E114A VEGF (ligand)
chain: B1 chain with R112A, E114A
notes: as for B3
B10: K48A VEGF (ligand)
chain: B1 chain with K48A
notes: as for B3
B11: E44A VEGF (ligand)
chain: B1 chain with E44A
notes: as for B3

Biological target: T1, KDR-IgG (UniProt P35968 20-764)
T1 construct: Construct only cited from Park et al. 1994; also called KDR receptor-IgG chimera; soluble KDR; not shown: IgG part of the chimera (captured by anti-human IgG Fc)
T1 sequence (P35968 20-764): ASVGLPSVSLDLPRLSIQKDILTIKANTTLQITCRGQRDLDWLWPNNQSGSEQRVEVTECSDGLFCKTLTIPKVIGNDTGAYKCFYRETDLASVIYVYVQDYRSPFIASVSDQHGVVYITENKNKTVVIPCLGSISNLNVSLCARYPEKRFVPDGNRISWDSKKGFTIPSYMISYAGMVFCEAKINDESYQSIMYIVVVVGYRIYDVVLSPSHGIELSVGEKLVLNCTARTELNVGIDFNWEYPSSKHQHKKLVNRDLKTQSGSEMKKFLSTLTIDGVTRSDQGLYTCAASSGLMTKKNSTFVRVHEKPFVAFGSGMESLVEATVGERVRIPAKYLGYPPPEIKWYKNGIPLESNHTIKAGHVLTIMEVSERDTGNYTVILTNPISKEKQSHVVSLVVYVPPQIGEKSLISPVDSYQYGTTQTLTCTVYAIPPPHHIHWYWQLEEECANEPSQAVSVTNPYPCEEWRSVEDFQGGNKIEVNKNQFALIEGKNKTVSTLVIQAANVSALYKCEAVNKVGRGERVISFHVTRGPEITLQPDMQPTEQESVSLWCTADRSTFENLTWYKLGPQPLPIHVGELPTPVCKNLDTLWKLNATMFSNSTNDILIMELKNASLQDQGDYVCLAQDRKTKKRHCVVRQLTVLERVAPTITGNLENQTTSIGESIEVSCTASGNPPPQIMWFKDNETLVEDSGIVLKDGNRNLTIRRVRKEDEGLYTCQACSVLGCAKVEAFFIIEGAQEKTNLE
Assay: competition with 125I-VEGF165 for KDR-IgG, n=8
Procedure: (§1) After the supernatant was discarded, the wells were washed three times in washing buffer (0.01% Tween 80 in PBS). The plate was blocked (300 µl/well) for one hr in assay buffer (0.5% BSA, 0.03% Tween 80, 0.01% Thimerosal in PBS). The supernatant was discarded and the wells were washed. […] Aliquots of this solution (100 µl) were added to pre-coated microtiter plates and incubated for 4 hr at ambient temperature with gentle agitation. The supernatant was discarded, the plate washed, and individual microtiter wells were counted by gamma scintigraphy (LKB model 1277).
(§2) In addition to the specific amino acid substitutions, the table indicates the mean residue number for the position of the mutation(s). For a given mutant, this number is the average of the altered positions.

Row | Binder | IC50 [nM]
1 | B1 | 0.031

Biological target: T2, FLT-1 IgG (UniProt P17948 27-758)
T2 construct: Construct only cited from Park et al. 1994; also called FLT-IgG; FLT-1 receptor-IgG chimera; not shown: IgG part of the chimera (captured by anti-human IgG Fc)
T2 sequence (P17948 27-758): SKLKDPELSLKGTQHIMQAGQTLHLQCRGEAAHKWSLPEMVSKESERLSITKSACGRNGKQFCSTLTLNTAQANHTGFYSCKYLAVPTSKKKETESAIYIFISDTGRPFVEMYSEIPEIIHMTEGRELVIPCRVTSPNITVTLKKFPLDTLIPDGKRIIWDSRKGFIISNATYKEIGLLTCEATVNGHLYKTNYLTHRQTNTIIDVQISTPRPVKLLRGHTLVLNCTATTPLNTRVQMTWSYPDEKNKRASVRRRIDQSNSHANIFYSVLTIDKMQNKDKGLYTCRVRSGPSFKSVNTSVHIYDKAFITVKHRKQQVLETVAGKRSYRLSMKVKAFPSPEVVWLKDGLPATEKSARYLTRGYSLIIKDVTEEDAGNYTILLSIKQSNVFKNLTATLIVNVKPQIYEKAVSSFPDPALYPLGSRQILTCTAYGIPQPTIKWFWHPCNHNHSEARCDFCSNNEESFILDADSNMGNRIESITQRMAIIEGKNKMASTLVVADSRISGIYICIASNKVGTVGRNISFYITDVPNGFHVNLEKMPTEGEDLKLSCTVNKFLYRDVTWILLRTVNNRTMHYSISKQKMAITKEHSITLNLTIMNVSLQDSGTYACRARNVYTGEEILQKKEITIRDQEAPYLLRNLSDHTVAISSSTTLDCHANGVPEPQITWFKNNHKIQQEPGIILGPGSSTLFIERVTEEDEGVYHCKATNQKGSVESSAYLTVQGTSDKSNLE
Assay: competition with 125I-VEGF165 for FLT-1-IgG, with heparin
Procedure: as §1

Row | Binder | IC50 [nM]
2 | B1 | 0.015
3 | B2 | 0.65

Biological target: T1, KDR-IgG
Assay: competition with 125I-VEGF165 for KDR-IgG, radioligand plate assay
Procedure: as §1

Row | Binder | IC50 [ng/mL]
4 | B3 | 8
5 | B4 | 2
6 | B5 | 2
7 | B6 | > 10000

Biological target: T2, FLT-1 IgG
Assay: competition with 125I-VEGF165 for FLT-1-IgG, radioligand plate assay
Procedure: as §1

Row | Binder | IC50 [ng/mL]
8 | B3 | 0.94
9 | B2 | 35.6
10 | B4 | 1.19
11 | B6 | 1.63
12 | B7 | 1.54

Biological target: T2, FLT-1 IgG
Assay: as above
Remark: another data set of the same source
Procedure: as §1

Row | Binder | IC50 [ng/mL]
13 | B8 | 0.51
14 | B5 | 1
15 | B9 | 0.56
16 | B10 | 1.08
17 | B11 | 0.54

Biological target: T1, KDR-IgG
Assay: competition with 125I-VEGF165 for KDR-IgG, radioligand plate assay, no heparin
Procedure: as §1, §2

Row | Binder | IC50 [nM]
18 | B1 | 0.03
19 | B8 | 0.007
20 | B9 | 0.04
21 | B10 | 0.02
22 | B11 | 0.004
23 | B6 | > 100
24 | B7 | 0.005

Biological target: T2, FLT-1 IgG
Assay: competition with 125I-VEGF165 for FLT-1-IgG, radioligand plate assay, no heparin
Procedure: as §1

Row | Binder | IC50 [nM]
25 | B1 | 0.022
26 | B3 | 0.016
27 | B8 | 0.008
28 | B2 | 0.98
29 | B4 | 0.015
30 | B5 | 0.03
31 | B9 | 0.013
32 | B10 | 0.026
33 | B11 | 0.009
34 | B6 | 0.029
35 | B7 | 0.026
